The results in this text go back to US12514920B1, “Respiratory syncytial virus mRNA vaccine, and preparation method therefor and use thereof” (Hangzhou Tianlong Pharmaceutical Co., Ltd., priority 2024, dated 2026).

The target in experiment [1] is RSV pre-F antibody (3C12). As to the kind of experiment: Affinity of RSV F antigen mutants by BLI, epitope Φ. The experiment is classed as binding. The procedure: To investigate the affinity of the RSV F antigen mutants for antibodies specifically recognizing epitopes in a pre-fusion conformation, the affinity was determined by a bio-layer interferometry (BLI) method in this example.
• 293T cells (purchased from ATCC cell bank); • RSV pre-F antibody (3C12), epitope Φ (Novoprotein, Cat. No.: DA101); • RSV pre-F antibody (7H11), epitope Quaternary (Novoprotein, Cat. No.: DA109); • Experimental group: mRNA vaccines after screening in Example 6;
Protein sample preparation: the experimental procedure was the same as in Example 3.
The antibodies were each diluted to 10 µg/mL with a 1×PBST solution. […]
The detection was performed using a protein interaction analyzer, and the results were analyzed using Data Analysis 12.0 software to obtain the binding rate, dissociation rate, and affinity constants.
Bio-Layer interferometry (referred to as BLI) is a label-free real-time monitoring optical detection technique, mainly used for comprehensive quantitative analysis of the interaction between biomolecules and protein concentration determination. […]
In the present application, the affinity of target proteins for 2 antibodies was analyzed by a BLI method, wherein the RSV pre-F antibody (3C12) recognizes the epitope […], and the RSV pre-F antibody (7H11) recognizes the epitope Quaternary.

Experiment [2] has as its target RSV pre-F antibody (7H11). The experiment can be described thus: Affinity of RSV F antigen mutants by BLI, epitope Quaternary. The class given is binding.
Text: The antibodies were each diluted to 10 g/mL with a 1×PBST solution.

Positions count from the first letter of the chain named.

B1: YK-RSV-048 (protein)
chain: QNITEEFYQSTCSAVSKGYLGALRTGWYTSVITIELSNIKENKCNGTDAKVKLIKQELDKYKNAVTDLQLLMQSTPATGSGSFLGFLCGVGSAIASGVAVSKVLHLEGEVNKIKSALLSTNKAVVSLSNGVSVLTFKVLDLKNYIDKQLLPILNKQSCSIPNIETVIEFQQKNNRLLEITREFSVNAGVTTPVSTYMLTNSELLSLINDMPITNDQKKLMSNNVQIVRQQSYSIMSIIKEEVLAYVVQLPLYGVIDTPCWKLHTSPLCTTNTKEGSNICLTRTDRGWYCDNAGSVSFFPQAETCKVQSNRVFCDTMCSRTLPSEVNLCNVDIFNPKYDCKIMTSKTDVSSSVITSLGAIVSCYGKTKCTASNKNRGIIKTFSNGCDYVSNKGVDTVSVGNTLYYVNKQEGQSLYVKGEPIINFYDPLVFPSDEFDASISQVNEKINQSLAFIRKSDELLHNVNAGKSTTNIMITTIIIVIIVILLSLIAVGLLLY
With B1, the results for the dissociation constant Kd in experiment [1] and in experiment [2] were 183 pM and 227 pM, respectively.

B2: YK-RSV-050 (protein)
chain: B1 chain with L87C, C88L
As for B2, the Kd (commonly a measure of binding affinity in units of concentration) was 552 pM in experiment [1] and 115 pM in experiment [2].
